# Laboratory results: patent US20230406921A1 (MABWELL SHANGHAI BIOSCIENCE, published 2023)
# Legend:
# [1] = molecular target: T1, CD47 on the surface of human red blood cells (human, UniProt Q08722 19-323); test: FACS, hRBC, 500 nM
# T1 construct: whole, on cells; Same protein as m3, on red blood cells; also called hRBC; RBC
# Experimental: The difference between the binding of the mutant to CD47 on the surface of tumor cells and CD47 on the surface of red blood cells was evaluated.
# [2] = molecular target: T1, CD47 on the surface of human red blood …; test: FACS, human red blood cells, antibody 1000 nM
# Experimental: (§1) In the experiment of analyzing the binding to human red blood cells, the antibody was used at a concentration of 1000 nM; and in the experiment of analyzing the binding to tumor cells, the antibody was used at a concentration of 100 nM.
# [3] = molecular target: T2, recombinant antigen of the extracellular region of CD47 (Sino Biological, Cat: 12283-H08H) (human, UniProt Q08722 19-139); test: Fortebio BLI
# T2 construct: extracellular domain; also called recombinant CD47 extracellular region; CD47 recombinant protein
# [4] = molecular target: PD-L1 (human, UniProt Q9NZQ7 19-239, limits assumed); test: Fortebio BLI
# [5] = molecular target: T3, CD47 on the surface of tumor cells (human, UniProt Q08722 19-323); test: FACS, SKOV-3 tumor cells (no PD-L1), antibody 100 nM
# T3 construct: whole, on cells; Same protein as m4; also called CD47 antigen on the surface of U937 and CCRF cells; SKOV-3
# Experimental: as §1
# Chain of PD-L1 (Q9NZQ7 19-239 limits assumed): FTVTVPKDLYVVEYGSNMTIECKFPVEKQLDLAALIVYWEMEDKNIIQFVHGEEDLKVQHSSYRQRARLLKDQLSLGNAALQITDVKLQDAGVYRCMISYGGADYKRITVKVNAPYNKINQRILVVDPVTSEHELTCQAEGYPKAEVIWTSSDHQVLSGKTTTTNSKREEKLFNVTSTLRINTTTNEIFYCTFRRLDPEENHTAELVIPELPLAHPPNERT
Binder,FACS (MFI) [1] [MFI],Binding to human red blood cells (MFI) [2] [MFI],Kd [3] [nM],koff [3] [s⁻¹],kon [3] [M⁻¹ s⁻¹],Kd [4] [nM],koff [4] [s⁻¹],kon [4] [M⁻¹ s⁻¹],Binding to tumor cells (MFI) [5] [MFI]
"h140Hm13/h140Lm1 (antibody, V domains shown, also called h140Lml) VH: EVQLVQSGAEVKKPGASVKVSCKASGYKFTNYVMSWVRQAPGQRLEWMGYINPYNDAIKYNEKFTGRVTITRDTSASTAYMELSSLRSEDTAVYYCAREGDFYANYGRLGFAYWGQGTLVTVSS VL: DIQMTQSPSSLSASVGDRVTITCRASQDISNYLNWYQQKPGKAPKLLIYYTSRLHSGVPSRFSGSGSGTDYTFTISSLQPEDIATYFCQQGDTFPRTFGGGTKVEIK",28700,–,–,–,–,–,–,–,–
"anti-human CD47/PD-L1 bispecific antibody 2MW1531-m8 (bispecific antibody, Knobs-into-holes with a common light chain) heavy 1: EVQLVQSGAEVKKPGASVKVSCKASGYKFTNYVMSWVRQAPGQRLEWMGYINPYNDAIKYNEKFTGRVTITRDTSASTAYMELSSLRSEDTAVYYCAREGDFYANYGRLGFAYWGQGTLVTVSSASTKGPSVFPLAPCSRSTSESTAALGCLVKDYFPEPVTVSWNSGALTSGVHTFPAVLQSSGLYSLSSVVTVPSSSLGTQTYTCNVDHKPSNTKVDKRVESKYGPPCPPCPAPEFLGGPSVFLFPPKPKDTLMISRTPEVTCVVVDVSQEDPEVQFNWYVDGVEVHNAKTKPREEQYNSTYRVVSVLTVLHQDWLNGKEYKCKVSNKGLPSSIEKTISKAKGQPREPQVYTLPPSQKEMTKNQVSLTCLVKGFYPSDIAVEWESNGQPENNYKTTPPVLDSDGSFFLYSKLTVDKSRWQEGNVFSCSVMHEALHNRYTQKSLSLSLGK heavy 2: EVQLVQSGAEVKKPGATVKISCKVSGFNIKDIYMHWVQQAPGKGLEWMGRIDPANANTKYDPKFQDRVTITADTSTNTAYMELSSLRSEDTAVYYCASGQLGPLGFDYWGQGTTVTVSSASTKGPSVFPLAPCSRSTSESTAALGCLVKDYFPEPVTVSWNSGALTSGVHTFPAVLQSSGLYSLSSVVTVPSSSLGTQTYTCNVDHKPSNTKVDKRVESKYGPPCPPCPAPEFLGGPSVFLFPPKPKDTLMISRTPEVTCVVVDVSQEDPEVQFNWYVDGVEVHNAKTKPREEQYNSTYRVVSVLTVLHQDWLNGKEYKCKVSNKGLPSSIEKTISKAKGQPREPQVYTLPPSQEEMTKNQVSLTCLVKGFYPSDIAVEWESNGQPENNYKTTPPVLDSDGSFFLYSKLTVDKSRWQEGNVFSCSVMHEALHNHYTQESLSLSLGK VL: DIQMTQSPSSLSASVGDRVTITCRASQDISNYLNWYQQKPGKAPKLLLYYTSRLHSGVPSRFSGSGSGTDYTLTISSLQPEDFATYFCQQGAGRPRTFGGGTKVEIKRTVAAPSVFIFPPSDEQLKSGTASVVCLLNNFYPREAKVQWKVDNALQSGNSQESVTEQDSKDSTYSLSSTLTLSKADYEKHKVYACEVTHQGLSSPVTKSFNRGEC",–,763,107,0.00937,87900,0.546,0.000134,245000,28200
"anti-human CD47/PD-L1 bispecific antibody 2MW1531-m3 (bispecific antibody, Knobs-into-holes with a common light chain) heavy 1: EVQLVQSGAEVKKPGASVKVSCKASGYKFTNYVMSWVRQAPGQRLEWMGYINPYNDAIKYNEKFTGRVTITRDTSASTAYMELSSLRSEDTAVYYCAREGDFYANYGRLGFAYWGQGTLVTVSSASTKGPSVFPLAPCSRSTSESTAALGCLVKDYFPEPVTVSWNSGALTSGVHTFPAVLQSSGLYSLSSVVTVPSSSLGTQTYTCNVDHKPSNTKVDKRVESKYGPPCPPCPAPEFLGGPSVFLFPPKPKDTLMISRTPEVTCVVVDVSQEDPEVQFNWYVDGVEVHNAKTKPREEQYNSTYRVVSVLTVLHQDWLNGKEYKCKVSNKGLPSSIEKTISKAKGQPREPQVYTLPPSQKEMTKNQVSLTCLVKGFYPSDIAVEWESNGQPENNYKTTPPVLDSDGSFFLYSKLTVDKSRWQEGNVFSCSVMHEALHNRYTQKSLSLSLGK heavy 2: EVQLVQSGAEVKKPGATVKISCKVSGFNIKDIYMHWVQQAPGKGLEWMGRIDPANANTKYDPKFQDRVTITADTSTNTAYMELSSLRSEDTAVYYCASGQLGPLGFDYWGQGTTVTVSSASTKGPSVFPLAPCSRSTSESTAALGCLVKDYFPEPVTVSWNSGALTSGVHTFPAVLQSSGLYSLSSVVTVPSSSLGTQTYTCNVDHKPSNTKVDKRVESKYGPPCPPCPAPEFLGGPSVFLFPPKPKDTLMISRTPEVTCVVVDVSQEDPEVQFNWYVDGVEVHNAKTKPREEQYNSTYRVVSVLTVLHQDWLNGKEYKCKVSNKGLPSSIEKTISKAKGQPREPQVYTLPPSQEEMTKNQVSLTCLVKGFYPSDIAVEWESNGQPENNYKTTPPVLDSDGSFFLYSKLTVDKSRWQEGNVFSCSVMHEALHNHYTQESLSLSLGK VL: not shown",–,955,65.7,0.00769,117000,1.02,0.000163,159000,34900
"anti-human CD47/PD-L1 bispecific antibody 2MW1531-m11 (bispecific antibody, Knobs-into-holes with a common light chain) heavy 1: EVQLVQSGAEVKKPGASVKVSCKASGYKFTNYVMSWVRQAPGQRLEWMGYINPYNDAIKYNEKFTGRVTITRDTSASTAYMELSSLRSEDTAVYYCAREGDFYANYGRLGFAYWGQGTLVTVSSASTKGPSVFPLAPCSRSTSESTAALGCLVKDYFPEPVTVSWNSGALTSGVHTFPAVLQSSGLYSLSSVVTVPSSSLGTQTYTCNVDHKPSNTKVDKRVESKYGPPCPPCPAPEFLGGPSVFLFPPKPKDTLMISRTPEVTCVVVDVSQEDPEVQFNWYVDGVEVHNAKTKPREEQYNSTYRVVSVLTVLHQDWLNGKEYKCKVSNKGLPSSIEKTISKAKGQPREPQVYTLPPSQKEMTKNQVSLTCLVKGFYPSDIAVEWESNGQPENNYKTTPPVLDSDGSFFLYSKLTVDKSRWQEGNVFSCSVMHEALHNRYTQKSLSLSLGK heavy 2: EVQLVQSGAEVKKPGATVKISCKVSGFNIKDIYMHWVQQAPGKGLEWMGRIDPANANTKYDPKFQDRVTITADTSTNTAYMELSSLRSEDTAVYYCASGQLGPLGFDYWGQGTTVTVSSASTKGPSVFPLAPCSRSTSESTAALGCLVKDYFPEPVTVSWNSGALTSGVHTFPAVLQSSGLYSLSSVVTVPSSSLGTQTYTCNVDHKPSNTKVDKRVESKYGPPCPPCPAPEFLGGPSVFLFPPKPKDTLMISRTPEVTCVVVDVSQEDPEVQFNWYVDGVEVHNAKTKPREEQYNSTYRVVSVLTVLHQDWLNGKEYKCKVSNKGLPSSIEKTISKAKGQPREPQVYTLPPSQEEMTKNQVSLTCLVKGFYPSDIAVEWESNGQPENNYKTTPPVLDSDGSFFLYSKLTVDKSRWQEGNVFSCSVMHEALHNHYTQESLSLSLGK VL: not shown",–,878,74.9,0.00907,121000,0.784,0.000237,302000,28900
"anti-human CD47/PD-L1 bispecific antibody 2MW1531-m10 (bispecific antibody, Knobs-into-holes with a common light chain) heavy 1: EVQLVQSGAEVKKPGASVKVSCKASGYKFTNYVMSWVRQAPGQRLEWMGYINPYNDAIKYNEKFTGRVTITRDTSASTAYMELSSLRSEDTAVYYCAREGDFYANYGRLGFAYWGQGTLVTVSSASTKGPSVFPLAPCSRSTSESTAALGCLVKDYFPEPVTVSWNSGALTSGVHTFPAVLQSSGLYSLSSVVTVPSSSLGTQTYTCNVDHKPSNTKVDKRVESKYGPPCPPCPAPEFLGGPSVFLFPPKPKDTLMISRTPEVTCVVVDVSQEDPEVQFNWYVDGVEVHNAKTKPREEQYNSTYRVVSVLTVLHQDWLNGKEYKCKVSNKGLPSSIEKTISKAKGQPREPQVYTLPPSQKEMTKNQVSLTCLVKGFYPSDIAVEWESNGQPENNYKTTPPVLDSDGSFFLYSKLTVDKSRWQEGNVFSCSVMHEALHNRYTQKSLSLSLGK heavy 2: EVQLVQSGAEVKKPGATVKISCKVSGFNIKDIYMHWVQQAPGKGLEWMGRIDPANANTKYDPKFQDRVTITADTSTNTAYMELSSLRSEDTAVYYCASGQLGPLGFDYWGQGTTVTVSSASTKGPSVFPLAPCSRSTSESTAALGCLVKDYFPEPVTVSWNSGALTSGVHTFPAVLQSSGLYSLSSVVTVPSSSLGTQTYTCNVDHKPSNTKVDKRVESKYGPPCPPCPAPEFLGGPSVFLFPPKPKDTLMISRTPEVTCVVVDVSQEDPEVQFNWYVDGVEVHNAKTKPREEQYNSTYRVVSVLTVLHQDWLNGKEYKCKVSNKGLPSSIEKTISKAKGQPREPQVYTLPPSQEEMTKNQVSLTCLVKGFYPSDIAVEWESNGQPENNYKTTPPVLDSDGSFFLYSKLTVDKSRWQEGNVFSCSVMHEALHNHYTQESLSLSLGK VL: not shown",–,890,54.8,0.00547,99800,1.28,0.000369,288000,26200
"anti-human CD47/PD-L1 bispecific antibody 2MW1531-m9 (bispecific antibody, human IgG4 S228P, kappa, Knobs-into-holes with a common light chain) heavy 1: EVQLVQSGAEVKKPGASVKVSCKASGYKFTNYVMSWVRQAPGQRLEWMGYINPYNDAIKYNEKFTGRVTITRDTSASTAYMELSSLRSEDTAVYYCAREGDFYANYGRLGFAYWGQGTLVTVSSASTKGPSVFPLAPCSRSTSESTAALGCLVKDYFPEPVTVSWNSGALTSGVHTFPAVLQSSGLYSLSSVVTVPSSSLGTQTYTCNVDHKPSNTKVDKRVESKYGPPCPPCPAPEFLGGPSVFLFPPKPKDTLMISRTPEVTCVVVDVSQEDPEVQFNWYVDGVEVHNAKTKPREEQYNSTYRVVSVLTVLHQDWLNGKEYKCKVSNKGLPSSIEKTISKAKGQPREPQVYTLPPSQKEMTKNQVSLTCLVKGFYPSDIAVEWESNGQPENNYKTTPPVLDSDGSFFLYSKLTVDKSRWQEGNVFSCSVMHEALHNRYTQKSLSLSLGK heavy 2: EVQLVQSGAEVKKPGATVKISCKVSGFNIKDIYMHWVQQAPGKGLEWMGRIDPANANTKYDPKFQDRVTITADTSTNTAYMELSSLRSEDTAVYYCASGQLGPLGFDYWGQGTTVTVSSASTKGPSVFPLAPCSRSTSESTAALGCLVKDYFPEPVTVSWNSGALTSGVHTFPAVLQSSGLYSLSSVVTVPSSSLGTQTYTCNVDHKPSNTKVDKRVESKYGPPCPPCPAPEFLGGPSVFLFPPKPKDTLMISRTPEVTCVVVDVSQEDPEVQFNWYVDGVEVHNAKTKPREEQYNSTYRVVSVLTVLHQDWLNGKEYKCKVSNKGLPSSIEKTISKAKGQPREPQVYTLPPSQEEMTKNQVSLTCLVKGFYPSDIAVEWESNGQPENNYKTTPPVLDSDGSFFLYSKLTVDKSRWQEGNVFSCSVMHEALHNHYTQESLSLSLGK VL: DIQMTQSPSSLSASVGDRVTITCRASQDISNYLNWYQQKPGKAPKLLLYYTSRLHSGVPSRFSGSGSGTDYTLTISSLQPEDFATYFCQQGDTFPYTFGGGTKVEIKRTVAAPSVFIFPPSDEQLKSGTASVVCLLNNFYPREAKVQWKVDNALQSGNSQESVTEQDSKDSTYSLSSTLTLSKADYEKHKVYACEVTHQGLSSPVTKSFNRGEC",–,781,79.6,0.00947,119000,0.706,0.000272,385000,37800
